Reference: patent CN117069831A (SHENZHEN BGI LIFE SCIENCE RES INSTITUTE, dated 2023)
Numbering of substitutions follows the chain as printed.

B1: R-30 (VHH)
VHH: QVQLQESGGGLVQSGGSLRLSCTASGGIIRLNSMGWYRQAPGKQREPVATIVSDVGTNYADSVKGRFTISRDNAKNTIYLQMNSLKFEDTAVYYCVADRAFVLRGEYEYWGQGTQVTVSS
notes: also called 第一株RBD纳米抗体R-30
B2: S1-24 (VHH)
VHH: B1 VHH with T23A, I28V, I29S, P41Q, P47L, S53N, K75A, I78V, Q81L, Y94N
notes: also called 第四株RBD纳米抗体S1-24
B3: S1-51 (VHH)
VHH: B1 VHH with T23A, I28V, I29S, P47L, V52I, K75A, I78V
notes: also called 第三株RBD纳米抗体S1-51
B4: S1-28 (VHH)
VHH: B1 VHH with S14P, L85P
notes: also called 第二株RBD纳米抗体S1-28

molecular target: T1, SARS-CoV-2 印度delta突变型S1抗原 (SARS-CoV-2 delta variant, UniProt P0DTC2 16-685); test: SPR, Biacore T200, antigen coupled to CM5 chip, nanobody as analyte
T1 construct: domain: S1; also called delta突变体抗原; delta变异突变株

Binder	Kd [nM]
B1	~0.1
B2	~0.1
B3	~0.1
B4	~0.1

molecular target: T2, SARS-CoV-2 南非beta突变型S1抗原 (SARS-CoV-2 beta variant, UniProt P0DTC2 16-685); test: as above
T2 construct: domain: S1; also called beta突变体抗原; beta变异突变株

Binder	Kd [nM]
B1	~0.1
B2	~0.1
B3	~0.1
B4	~0.1
